Tests used:
Conditions in all cases: partners not purified
[1] = target: T1, mCherry-RBBP8 (UniProt Q99708 1-897); experiment: fluorescence cross-correlation spectroscopy (FCCS); lysate of co-transfected HeLa cells; 20 mM Tris-HCl pH 7.5, 140 mM KCl, 1.5 mM MgCl2, 1 mM DTT, 0.5% NP-40; lysed at room temperature; cross-correlation/autocorrelation ratio
T1 construct: also called mCherry-RBBP8/CtIP; CtIP; source: HeLa, transfected, in live cells and in lysate

[2] = target: T1, mCherry-RBBP8; experiment: fluorescence cross-correlation spectroscopy (FCCS); GFP- and mCherry-tagged proteins co-expressed in live HeLa cells; focal volume in the nucleoplasm (MSH2-MSH6 also in the cytoplasm); room temperature; cross-correlation/autocorrelation ratio
[3] = target: T2, mCherry-BARD1 (UniProt Q99728 1-777); experiment: as above
T2 construct: also called BRCA1 Associated RING Domain 1; source: HeLa, transfected, in live cells and in lysate
T2 sequence (looked up): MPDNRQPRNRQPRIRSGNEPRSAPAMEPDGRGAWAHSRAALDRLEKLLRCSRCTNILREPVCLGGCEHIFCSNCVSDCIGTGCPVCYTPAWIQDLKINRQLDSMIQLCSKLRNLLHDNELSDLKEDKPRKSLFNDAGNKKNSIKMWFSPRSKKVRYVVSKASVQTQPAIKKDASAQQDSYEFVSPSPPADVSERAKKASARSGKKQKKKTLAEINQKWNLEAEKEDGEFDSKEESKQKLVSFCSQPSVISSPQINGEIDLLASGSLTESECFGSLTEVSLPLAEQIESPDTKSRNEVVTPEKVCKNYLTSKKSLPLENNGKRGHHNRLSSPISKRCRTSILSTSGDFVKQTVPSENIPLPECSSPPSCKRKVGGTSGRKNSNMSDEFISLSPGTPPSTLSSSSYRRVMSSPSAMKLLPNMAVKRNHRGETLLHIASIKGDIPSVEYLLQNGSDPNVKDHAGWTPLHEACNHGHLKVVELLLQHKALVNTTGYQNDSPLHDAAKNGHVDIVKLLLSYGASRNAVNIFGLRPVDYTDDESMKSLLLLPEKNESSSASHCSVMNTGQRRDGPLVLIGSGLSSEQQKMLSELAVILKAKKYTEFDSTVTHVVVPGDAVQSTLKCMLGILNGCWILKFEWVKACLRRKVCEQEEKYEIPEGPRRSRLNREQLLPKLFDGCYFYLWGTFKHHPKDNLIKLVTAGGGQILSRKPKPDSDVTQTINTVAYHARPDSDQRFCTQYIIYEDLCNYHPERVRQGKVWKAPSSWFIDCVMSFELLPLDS

T1 sequence (Q99708 whole entry): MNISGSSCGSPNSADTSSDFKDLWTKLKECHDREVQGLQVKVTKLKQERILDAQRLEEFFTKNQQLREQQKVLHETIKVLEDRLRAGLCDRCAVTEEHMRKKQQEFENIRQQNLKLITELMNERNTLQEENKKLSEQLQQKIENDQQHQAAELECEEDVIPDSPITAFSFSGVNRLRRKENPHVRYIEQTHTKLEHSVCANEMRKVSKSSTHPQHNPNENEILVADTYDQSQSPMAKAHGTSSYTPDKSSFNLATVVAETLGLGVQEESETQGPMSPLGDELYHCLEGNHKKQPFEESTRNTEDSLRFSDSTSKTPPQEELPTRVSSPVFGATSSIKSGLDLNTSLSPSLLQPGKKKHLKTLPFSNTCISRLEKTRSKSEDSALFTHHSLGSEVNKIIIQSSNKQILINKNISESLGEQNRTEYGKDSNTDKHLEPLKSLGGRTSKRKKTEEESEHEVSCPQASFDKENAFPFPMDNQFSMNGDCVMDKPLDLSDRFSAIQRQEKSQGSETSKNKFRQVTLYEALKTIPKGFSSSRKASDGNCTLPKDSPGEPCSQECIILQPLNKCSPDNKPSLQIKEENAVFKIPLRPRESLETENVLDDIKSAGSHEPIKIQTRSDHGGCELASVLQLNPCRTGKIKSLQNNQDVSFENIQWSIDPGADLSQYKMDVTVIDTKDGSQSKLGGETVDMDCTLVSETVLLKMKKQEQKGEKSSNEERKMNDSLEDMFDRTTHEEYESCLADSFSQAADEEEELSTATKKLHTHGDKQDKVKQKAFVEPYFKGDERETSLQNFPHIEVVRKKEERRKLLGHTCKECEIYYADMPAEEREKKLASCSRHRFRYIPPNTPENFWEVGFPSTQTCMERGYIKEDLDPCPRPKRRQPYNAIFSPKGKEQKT

B1: GFP-BRCT (isolated BRCA1 BRCT domain, wild-type) (domain or fragment, UniProt P38398 1650-1863, looked up)
chain: MSMVVSGLTPEEFMLVYKFARKHHITLTNLITEETTHVVMKTDAEFVCERTLKYFLGIAGGKWVVSYFWVTQSIKERKMLNEHDFEVRGDVVNGRNHQGPKRARESQDRKIFRGLEICCYGPFTNMPTDQLEWMVQLCGASVVKELSSFTLGTGVHPIVVVQPDAWTEDNGFHAIGQMCEAPVVTREWVLDSVALYQCQELDTYLIPQIPHSHY
notes: BRCA1 amino acids 1650-1864 cloned into pEGFP-C1; the printed limit 1864 may count the stop codon; also called EGFP-tagged BRCT trimmed domain; source: HeLa, transfected, in lysate
A cross-correlation [1] of 17% was found for B1 in this work.

B2: GFP-BRCA1 p.Thr1684Ala (natural protein, UniProt P38398 1-1863, looked up)
chain: MDLSALRVEEVQNVINAMQKILECPICLELIKEPVSTKCDHIFCKFCMLKLLNQKKGPSQCPLCKNDITKRSLQESTRFSQLVEELLKIICAFQLDTGLEYANSYNFAKKENNSPEHLKDEVSIIQSMGYRNRAKRLLQSEPENPSLQETSLSVQLSNLGTVRTLRTKQRIQPQKTSVYIELGSDSSEDTVNKATYCSVGDQELLQITPQGTRDEISLDSAKKAACEFSETDVTNTEHHQPSNNDLNTTEKRAAERHPEKYQGSSVSNLHVEPCGTNTHASSLQHENSSLLLTKDRMNVEKAEFCNKSKQPGLARSQHNRWAGSKETCNDRRTPSTEKKVDLNADPLCERKEWNKQKLPCSENPRDTEDVPWITLNSSIQKVNEWFSRSDELLGSDDSHDGESESNAKVADVLDVLNEVDEYSGSSEKIDLLASDPHEALICKSERVHSKSVESNIEDKIFGKTYRKKASLPNLSHVTENLIIGAFVTEPQIIQERPLTNKLKRKRRPTSGLHPEDFIKKADLAVQKTPEMINQGTNQTEQNGQVMNITNSGHENKTKGDSIQNEKNPNPIESLEKESAFKTKAEPISSSISNMELELNIHNSKAPKKNRLRRKSSTRHIHALELVVSRNLSPPNCTELQIDSCSSSEEIKKKKYNQMPVRHSRNLQLMEGKEPATGAKKSNKPNEQTSKRHDSDTFPELKLTNAPGSFTKCSNTSELKEFVNPSLPREEKEEKLETVKVSNNAEDPKDLMLSGERVLQTERSVESSSISLVPGTDYGTQESISLLEVSTLGKAKTEPNKCVSQCAAFENPKGLIHGCSKDNRNDTEGFKYPLGHEVNHSRETSIEMEESELDAQYLQNTFKVSKRQSFAPFSNPGNAEEECATFSAHSGSLKKQSPKVTFECEQKEENQGKNESNIKPVQTVNITAGFPVVGQKDKPVDNAKCSIKGGSRFCLSSQFRGNETGLITPNKHGLLQNPYRIPPLFPIKSFVKTKCKKNLLEENFEEHSMSPEREMGNENIPSTVSTISRNNIRENVFKEASSSNINEVGSSTNEVGSSINEIGSSDENIQAELGRNRGPKLNAMLRLGVLQPEVYKQSLPGSNCKHPEIKKQEYEEVVQTVNTDFSPYLISDNLEQPMGSSHASQVCSETPDDLLDDGEIKEDTSFAENDIKESSAVFSKSVQKGELSRSPSPFTHTHLAQGYRRGAKKLESSEENLSSEDEELPCFQHLLFGKVNNIPSQSTRHSTVATECLSKNTEENLLSLKNSLNDCSNQVILAKASQEHHLSEETKCSASLFSSQCSELEDLTANTNTQDPFLIGSSKQMRHQSESQGVGLSDKELVSDDEERGTGLEENNQEEQSMDSNLGEAASGCESETSVSEDCSGLSSQSDILTTQQRDTMQHNLIKLQQEMAELEAVLEQHGSQPSNSYPSIISDSSALEDLRNPEQSTSEKAVLTSQKSSEYPISQNPEGLSADKFEVSADSSTSKNKEPGVERSSPSKCPSLDDRWYMHSCSGSLQNRNYPSQEELIKVVDVEEQQLEESGPHDLTETSYLPRQDLEGTPYLESGISLFSDDPESDPSEDRAPESARVGNIPSSTSALKVPQLKVAESAQSPAAAHTTDTAGYNAMEESVSREKPELTASTERVNKRMSMVVSGLTPEEFMLVYKFARKHHITLTNLITEEATHVVMKTDAEFVCERTLKYFLGIAGGKWVVSYFWVTQSIKERKMLNEHDFEVRGDVVNGRNHQGPKRARESQDRKIFRGLEICCYGPFTNMPTDQLEWMVQLCGASVVKELSSFTLGTGVHPIVVVQPDAWTEDNGFHAIGQMCEAPVVTREWVLDSVALYQCQELDTYLIPQIPHSHY
notes: also called T1684A; source: HeLa, transfected, in live cells
With B2 the “reduction in binding relative to wild type” value [2] was roughly 50%.

B3: GFP-BRCA1-C44F (natural protein, UniProt P38398 1-1863, looked up)
chain: MDLSALRVEEVQNVINAMQKILECPICLELIKEPVSTKCDHIFFKFCMLKLLNQKKGPSQCPLCKNDITKRSLQESTRFSQLVEELLKIICAFQLDTGLEYANSYNFAKKENNSPEHLKDEVSIIQSMGYRNRAKRLLQSEPENPSLQETSLSVQLSNLGTVRTLRTKQRIQPQKTSVYIELGSDSSEDTVNKATYCSVGDQELLQITPQGTRDEISLDSAKKAACEFSETDVTNTEHHQPSNNDLNTTEKRAAERHPEKYQGSSVSNLHVEPCGTNTHASSLQHENSSLLLTKDRMNVEKAEFCNKSKQPGLARSQHNRWAGSKETCNDRRTPSTEKKVDLNADPLCERKEWNKQKLPCSENPRDTEDVPWITLNSSIQKVNEWFSRSDELLGSDDSHDGESESNAKVADVLDVLNEVDEYSGSSEKIDLLASDPHEALICKSERVHSKSVESNIEDKIFGKTYRKKASLPNLSHVTENLIIGAFVTEPQIIQERPLTNKLKRKRRPTSGLHPEDFIKKADLAVQKTPEMINQGTNQTEQNGQVMNITNSGHENKTKGDSIQNEKNPNPIESLEKESAFKTKAEPISSSISNMELELNIHNSKAPKKNRLRRKSSTRHIHALELVVSRNLSPPNCTELQIDSCSSSEEIKKKKYNQMPVRHSRNLQLMEGKEPATGAKKSNKPNEQTSKRHDSDTFPELKLTNAPGSFTKCSNTSELKEFVNPSLPREEKEEKLETVKVSNNAEDPKDLMLSGERVLQTERSVESSSISLVPGTDYGTQESISLLEVSTLGKAKTEPNKCVSQCAAFENPKGLIHGCSKDNRNDTEGFKYPLGHEVNHSRETSIEMEESELDAQYLQNTFKVSKRQSFAPFSNPGNAEEECATFSAHSGSLKKQSPKVTFECEQKEENQGKNESNIKPVQTVNITAGFPVVGQKDKPVDNAKCSIKGGSRFCLSSQFRGNETGLITPNKHGLLQNPYRIPPLFPIKSFVKTKCKKNLLEENFEEHSMSPEREMGNENIPSTVSTISRNNIRENVFKEASSSNINEVGSSTNEVGSSINEIGSSDENIQAELGRNRGPKLNAMLRLGVLQPEVYKQSLPGSNCKHPEIKKQEYEEVVQTVNTDFSPYLISDNLEQPMGSSHASQVCSETPDDLLDDGEIKEDTSFAENDIKESSAVFSKSVQKGELSRSPSPFTHTHLAQGYRRGAKKLESSEENLSSEDEELPCFQHLLFGKVNNIPSQSTRHSTVATECLSKNTEENLLSLKNSLNDCSNQVILAKASQEHHLSEETKCSASLFSSQCSELEDLTANTNTQDPFLIGSSKQMRHQSESQGVGLSDKELVSDDEERGTGLEENNQEEQSMDSNLGEAASGCESETSVSEDCSGLSSQSDILTTQQRDTMQHNLIKLQQEMAELEAVLEQHGSQPSNSYPSIISDSSALEDLRNPEQSTSEKAVLTSQKSSEYPISQNPEGLSADKFEVSADSSTSKNKEPGVERSSPSKCPSLDDRWYMHSCSGSLQNRNYPSQEELIKVVDVEEQQLEESGPHDLTETSYLPRQDLEGTPYLESGISLFSDDPESDPSEDRAPESARVGNIPSSTSALKVPQLKVAESAQSPAAAHTTDTAGYNAMEESVSREKPELTASTERVNKRMSMVVSGLTPEEFMLVYKFARKHHITLTNLITEETTHVVMKTDAEFVCERTLKYFLGIAGGKWVVSYFWVTQSIKERKMLNEHDFEVRGDVVNGRNHQGPKRARESQDRKIFRGLEICCYGPFTNMPTDQLEWMVQLCGASVVKELSSFTLGTGVHPIVVVQPDAWTEDNGFHAIGQMCEAPVVTREWVLDSVALYQCQELDTYLIPQIPHSHY
notes: also called p.Cys44Phe; source: HeLa, transfected, in live cells
In the case of B3, the “reduction in binding relative to wild type” value [3] is reported as roughly 50%.

— publication PMC12867984, “Functional assessment of protein variants in structured domains by fluorescence cross-correlation spectroscopy” (Scientific Reports, 2026)
